Results: publication PMC12489471, “A multi-dentate, cooperative interaction between endo- and exo-ribonucleases within the bacterial RNA degradosome” (Nucleic Acids Research, 2025)
“Also recorded” adds a separate entry of the source.

T1: PNPase (Escherichia coli, UniProt P05055)
T1 construct: made in house; host or cells: E. coli Evo21(DE3)
T1 sequence (P05055 whole entry, looked up): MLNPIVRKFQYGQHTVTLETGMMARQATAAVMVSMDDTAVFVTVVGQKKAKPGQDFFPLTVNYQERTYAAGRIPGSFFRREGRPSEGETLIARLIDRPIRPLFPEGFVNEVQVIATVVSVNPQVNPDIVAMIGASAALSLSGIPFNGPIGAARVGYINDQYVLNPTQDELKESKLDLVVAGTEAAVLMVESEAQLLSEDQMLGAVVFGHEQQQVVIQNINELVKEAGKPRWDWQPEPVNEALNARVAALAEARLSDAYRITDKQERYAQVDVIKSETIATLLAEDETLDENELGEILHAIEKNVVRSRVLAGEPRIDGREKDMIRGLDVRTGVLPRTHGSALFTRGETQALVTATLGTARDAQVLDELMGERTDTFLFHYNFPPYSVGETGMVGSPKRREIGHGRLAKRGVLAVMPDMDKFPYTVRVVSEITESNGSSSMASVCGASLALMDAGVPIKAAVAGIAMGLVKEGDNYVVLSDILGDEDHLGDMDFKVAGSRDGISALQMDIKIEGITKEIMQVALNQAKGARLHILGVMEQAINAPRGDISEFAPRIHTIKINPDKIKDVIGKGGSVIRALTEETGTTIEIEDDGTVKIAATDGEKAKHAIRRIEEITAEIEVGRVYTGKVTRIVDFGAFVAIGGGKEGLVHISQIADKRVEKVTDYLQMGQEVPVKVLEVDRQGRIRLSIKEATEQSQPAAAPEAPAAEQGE

B1: RNase E 960 – 1061 R1012A: RNase E peptide with point mutation of Arg1012 to alanine (peptide)
chain: VVETAEVVVAEPEVVAQPAAPVVAEVAAEVETVAAVEPEVTVEHNHATAPMTAAPAPEYVPEAPRHSDWQRPTFAFEGKGAAGGHTATHHASAAPARPQPVE
modifications: left off: His6, N-terminal, cleaved | MBP, N-terminal, cleaved | intein, C-terminal, cleaved | choline-binding domain, C-terminal, cleaved
notes: RNase E peptide with point mutation of Arg1012 to alanine
B2: RNase E 960 – 1061 R1056A: RNase E peptide with point mutation of Arg1056 to alanine (peptide)
chain: VVETAEVVVAEPEVVAQPAAPVVAEVAAEVETVAAVEPEVTVEHNHATAPMTRAPAPEYVPEAPRHSDWQRPTFAFEGKGAAGGHTATHHASAAPAAPQPVE
modifications: left off: His6, N-terminal, cleaved | MBP, N-terminal, cleaved | intein, C-terminal, cleaved | choline-binding domain, C-terminal, cleaved
notes: RNase E peptide with point mutation of Arg1056 to alanine
B3: E. coli PNPase core, lacking S1 and KH domains: truncated PNPase lacking the KH and S1 domains (protein)
chain: MLNPIVRKFQYGQHTVTLETGMMARQATAAVMVSMDDTAVFVTVVGQKKAKPGQDFFPLTVNYQERTYAAGRIPGSFFRREGRPSEGETLIARLIDRPIRPLFPEGFVNEVQVIATVVSVNPQVNPDIVAMIGASAALSLSGIPFNGPIGAARVGYINDQYVLNPTQDELKESKLDLVVAGTEAAVLMVESEAQLLSEDQMLGAVVFGHEQQQVVIQNINELVKEAGKPRWDWQPEPVNEALNARVAALAEARLSDAYRITDKQERYAQVDVIKSETIATLLAEDETLDENELGEILHAIEKNVVRSRVLAGEPRIDGREKDMIRGLDVRTGVLPRTHGSALFTRGETQALVTATLGTARDAQVLDELMGERTDTFLFHYNFPPYSVGETGMVGSPKRREIGHGRLAKRGVLAVMPDMDKFPYTVRVVSEITESNGSSSMASVCGASLALMDAGVPIKAAVAGIAMGLVKEGDNYVVLSDILGDEDHLGDMDFKVAGSRDGISALQMDIKIEGITKEIMQVALNQAKGARLHILGVMEQAINAPRGDISEFA
modifications: left off: Mycobacterium xenopi GyrA intein, C-terminal, cleaved | His8, C-terminal, cleaved
B4: RNase E 583-1061, avi-tagged: avi-tagged RNase E 583-1061 (protein)
chain: SGGEETKPTEQPAPKAEAKPERQQDRRKPRQNNRRDRNERRDTRSERTEGSDNREENRRNRRQAQQQTAETRESRQQAEVTEKARTADEQQAPRRERSRRRNDDKRQAQQEAKALNVEEQSVQETEQEERVRPVQPRRKQRQLNQKVRYEQSVAEEAVVAPVVEETVAAEPIVQEAPAPRTELVKVPLPVVAQTAPEQQEENNADNRDNGGMPRRSRRSPRHLRVSGQRRRRYRDERYPTQSPMPLTVACASPELASGKVWIRYPIVRPQDVQVEEQREQEEVHVQPMVTEVPVAAAIEPVVSAPVVEEVAGVVEAPVQVAEPQPEVVETTHPEVIAAAVTEQPQVITESDVAVAQEVAEQAEPVVEPQEETADIEEVVETAEVVVAEPEVVAQPAAPVVAEVAAEVETVAAVEPEVTVEHNHATAPMTRAPAPEYVPEAPRHSDWQRPTFAFEGKGAAGGHTATHHASAAPARPQPVE
modifications: left off: Avi tag, end not stated, kept

Experiments:
[1] = SEC-MALLS molar mass of PNPase and PNPase/RNase E complexes; assay type: physicochemical
Protocol: Estimation of molar masses of PNPase and the various PNPase/RNase E complexes was carried out by size-exclusion chromatography with multi-angle laser light scattering (SEC-MALLS). Proteins (100 μl at ∼1 mg/ml concentration) were loaded onto a Superdex 200 10/300 Increase GL SEC column (GE Healthcare) at 0.5 ml/min using an AKTA Purifier FPLC system ([…]). Chromatograms were acquired using UNICORN software (GE Healthcare) at 280 nm. The eluent from the S200 column was analysed with an online DAWN HELEOS II MALLS instrument with eight detectors (Wyatt Technology), followed by an Optilab T-rEX differential refractometer (Wyatt Technology) at 25°C. Data collection and analysis were performed using ASTRA 6 software (Wyatt Technology). Eluted peaks from SEC column were evaluated by Zimm Plot, using a dn/dc value of 0.1850 ml/g. Bovine serum albumin was used as a standard to confirm the system performance (Supplementary Table S1).

PNPase = biological target: T1, PNPase; assay type: binding, E. coli; settings: SPR; for Kd (dissociation rate constant, point mutants and wildtype): 25°C, immobilized PNPase C-His, HEPES pH 7.2, 0, 12.5, 25 and 50 nM (point mutants), contact 120 s, dissociation 120 s, duplicates
Text: Briefly, at the N-terminal of the construct, there is an Hisx6 affinity tag that will be used for affinity purification. Following the Hisx6 tag there is an maltose-binding protein (MBP) tag with a TEV cleavage site to maintain solubility of the peptides. Following the MBP tag the gene encoding the peptide is inserted, and is then followed by intein, a self-cleavable tag, followed by a choline-binding domain, which can be used for an extra step of affinity purification. […] After expression, cells were harvested, resuspended in Lysis Buffer 2 (20 mM Tris–HCl, pH 8.0, 80 mM KCl, 300 mM NaCl, 20 mM Imidazole, 0.5 mM TCEP), and lysed with a cell disruptor (Emulsiflex, Avestin). […] After subsequent rounds of washing with Ni Equilibration Buffer supplemented with, respectively, 0.1% Triton-X, 1 M NaCl, and a final wash in Ni Equilibration Buffer, samples were eluted with Ni Elution Buffer (20 mM Tris–HCl, pH 8.0, 300 mM NaCl, 300 mM imidazole, 0.5 mM TCEP). Enriched fractions were then supplemented with 100 mM β-mercaptoethanol to catalyse intein self-cleavage overnight at room temperature. Treated samples were filtered and loaded on an amylose gravity flow column, equilibrated with Amy Equilibration Buffer (20 mM Tris–HCl, pH 8.0, 20 mM NaCl, 20 mM imidazole, 2 mM β-mercaptoethanol) and after washing, His-tagged TEV protease was applied to the resin and incubated at 4°C for 2 h.
PNPase carrying a C-terminal Hisx6 tag was expressed from pExp-cis-Ec_PNP-CHis vector in E. coli Evo21(DE3) cells, induced with 0.4 mM IPTG, at 18°C overnight. After expression, cells were harvested and resuspended in Lysis Buffer 2 (20 mM Tris–HCl, pH 8.0, 80 mM KCl, 300 mM NaCl, 20 mM imidazole, 0.5 mM TCEP), and lysed with a cell disruptor (Emulsiflex, Avestin). […] After subsequent rounds of washing with equilibration buffer supplemented with 0.1% Triton-X, or 1 M NaCl, the sample was eluted with Ni PNPCHis Elution Buffer (20 mM NaH2PO4, pH 8.0, 300 mM NaCl, 300 mM KCl, 5 mM MgCl2, 300 mM imidazole, pH 7.5, 10 mM β-mercaptoethanol). […] Fractions containing PNPase were run through a HiPrep™ 26/10 Desalting Column (GE Healthcare) and buffer exchanged to Q PNPCHis A (20 mM NaH2PO4, pH 8.0, 30 mM NaCl, 10% glycerol, 0.5 mM TCEP).
Interaction measurements were made using a Biacore T200 instrument (GE) at 25°C. PNPase with a 6xHisTag at the CTD was immobilized on a Series S Sensor Chip NTA (Cytiva) to provide a signal of 5 response units (RU). […] For the SPR analysis of the point mutants, binding to PNPase was measured at four different concentrations (0, 12.5, 25, and 50 nM). All concentrations were run in duplicates. The contact time was 60 s, while the dissociation time was 120 s, at a […] flow rate. […] The chip surface was regenerated with 350 mM EDTA in water, following manufacturer's instructions. Data were processed using the manufacturer’s BIAevaluation software.

[2] = Superdex 200, 25°C, buffer A (with 0.01% w/v b-DDM)
[3] = Superdex 200, 25°C, buffer A: 50 mM Tris pH 7.5, 100 mM NaCl, 100 mM KCl, 0.01% w/v b-DDM, 1 mM TCEP
[4] = buffer A (with 0.01% w/v b-DDM)
[5] = buffer A, expected: PNPase trimer, or trimer:RNase E 1:1 ratio
[6] = Superdex 200, 25°C, buffer B: A w/o bDDM
[7] = buffer B, expected: trimer:RNase E 1:1 ratio for complexes
[8] = buffer B: A w/o bDDM, second line in buffer B
[9] = mutant vs wildtype RNase E 960–1061

Molecule	Mw weight-averaged solute molar mass [1, 2]	Mn number-averaged solute molar mass [1, 3]	Polydispersity (Mn/Mw) [1, 4]	Difference Mn from expected mass [1, 5] [%]	Mn number-averaged solute molar mass [1, 6]	Mw weight-averaged solute molar mass [1, 6]	Difference Mn from expected mass [1, 7] [%]	Polydispersity (Mn/Mw) ([1]; buffer B: A w/o bDDM)	Kd (dissociation rate constant, point mutants and wildtype) (PNPase) [s⁻¹]	association rate compared to the wildtype, in words (PNPase; [9])	dissociation rate (off-rate) compared to the wildtype, in words (PNPase; [9])	other results
E. coli PNPase: polynucleotide phosphorylase, trimer	204,900 Da	204,600 Da	1.001	11.5								
Bovine serum albumin: standard to confirm the system performance [reference compound]	63,270 Da	63,250 Da	1.000	4.8	63,300 Da	63,350 Da	4.7	1.001				Difference Mn from expected mass ([1]; buffer B, second line in buffer B): 3.8%; Mn number-averaged solute molar mass [1, 8]: 63,900 Da; Mw weight-averaged solute molar mass [1, 8]: 64,200 Da; Polydispersity (Mn/Mw) [1, 8]: 1.005
B1									0.052	does not significantly affect the KD of the interaction and the association rate	faster off-rate; also recorded: faster dissociation rate	effect on KD / binding compared to the wildtype, in words (PNPase; [9]): does not significantly affect the KD of the interaction
B2									0.045	ten-fold slower	faster off-rate	KD change compared to the wildtype (PNPase; [9]): roughly 13 fold
B3	163,600 Da	163,300 Da	1.002	8.7								
B4					52,930 Da	53,310 Da	4.7	1.007				
